According to US9708383 (Novo Nordisk, dated 2017):
*1 amine or outer side, *2 acyl side, *3 side chain or, on linkers, in order; H or OH if unused. Where no end group is shown, it is not given here. Side-chain parts run from the residue outwards. [ ]: non-standard residue; d: D form. The star is where a group is joined. 8‑(4-carboxyphenoxy)octanoyl = O=C(O)c1ccc(OCCCCCCCC(=O)*)cc1; Decanoyl(10-(4-HOOC-PhO)) = O=C(O)c1ccc(OCCCCCCCCCC(=O)*)cc1; γGlu = O=C(O)[C@H](CCC(=O)[*:2])N[*:1]; 13‑carboxytridecanoyl = C14 diacid; AEEA = NCCOCCOCC(=O)O; Aib = CC(C)(N)C(=O)O

Tests used:
[1] = target: T1, human GLP-1 receptor (human, UniProt P43220 24-463); assay: SPA, displacement of 125I-GLP-1(7-36)NH2, 0.005% HSA
T1 construct: whole, on cells; Used as purified membranes of the transfected hamster cells, not whole cells; also called hGLP-1

[2] = target: T1, human GLP-1 receptor; assay: SPA, 2.0% vs 0.005% HSA

Binder | IC50 [1] [nM] | ratio IC50 high HSA/IC50 low HSA [2]
H[Aib]EGTFTSDVSK([AEEA-γGlu-AEEA-13‑carboxytridecanoyl])YLEEQAAK([AEEA-γGlu-AEEA-13‑carboxytridecanoyl])EFIAWLVQGRG [GLP-1 derivative of Example 86: [Aib8,Lys18,Glu22,Gln34]-GLP-1-(7-37)-peptide] | < 1000 | > 1
H[Aib]EGTFTSDVSK([AEEA-γGlu-AEEA-Decanoyl(10-(4-HOOC-PhO))])YLEEQAAK([AEEA-γGlu-AEEA-Decanoyl(10-(4-HOOC-PhO))])EFIAWLVQGRG [GLP-1 derivative of Example 90: [Aib8,Lys18,Glu22,Gln34]-GLP-1-(7-37)-peptide] | < 1000 | > 1
H[Aib]EGTFTSDVSK([γGlu-AEEA-AEEA-Decanoyl(10-(4-HOOC-PhO))])YLEEQAAK([γGlu-AEEA-AEEA-Decanoyl(10-(4-HOOC-PhO))])EFIAWLVQGRG [GLP-1 derivative of Example 82: [Aib8,Lys18,Glu22,Gln34]-GLP-1-(7-37)-peptide] | < 1000 | > 1
H[Aib]EGTFTSDVSK([AEEA-AEEA-13‑carboxytridecanoyl])YLEEQAAK([AEEA-AEEA-13‑carboxytridecanoyl])EFIAWLVQGRG [GLP-1 derivative of Example 84: [Aib8,Lys18,Glu22,Gln34]-GLP-1-(7-37)-peptide] | < 1000 | > 1
H[Aib]EGTFTSDVSK([AEEA-AEEA-γGlu-13‑carboxytridecanoyl])YLEEQAAK([AEEA-AEEA-γGlu-13‑carboxytridecanoyl])EFIAWLVQGRG [GLP-1 derivative of Example 80: [Aib8,Lys18,Glu22,Gln34]-GLP-1-(7-37)-peptide] | < 1000 | > 1
H[Aib]EGTFTSDVSK([AEEA-AEEA-γGlu-8‑(4-carboxyphenoxy)octanoyl])YLEEQAAK([AEEA-AEEA-γGlu-8‑(4-carboxyphenoxy)octanoyl])EFIAWLVQGRG [GLP-1 derivative of Example 87: [Aib8,Lys18,Glu22,Gln34]-GLP-1-(7-37)-peptide] | < 1000 | > 1
H[Aib]EGTFTSDVSK([AEEA-AEEA-γGlu-2‑phenylcyclopropanecarbonyl])YLEEQAAK([AEEA-AEEA-γGlu-2‑phenylcyclopropanecarbonyl])EFIAWLVQGRG [GLP-1 derivative of Example 79: [Aib8,Lys18,Glu22,Gln34]-GLP-1-(7-37)-peptide] | < 1000 | > 1
H[Aib]EGTFTSDVSK([AEEA-AEEA-Decanoyl(10-(4-HOOC-PhO))])YLEEQAAK([AEEA-AEEA-Decanoyl(10-(4-HOOC-PhO))])EFIAWLVQGRG [GLP-1 derivative of Example 85: [Aib8,Lys18,Glu22,Lys26,Gln34]-GLP-1-(7-37)-peptide] | < 1000 | > 1
H[Aib]EGTFTSDVSK([AEEA-AEEA-AEEA-AEEA-Decanoyl(10-(4-HOOC-PhO))])YLEEQAAK([AEEA-AEEA-AEEA-AEEA-Decanoyl(10-(4-HOOC-PhO))])EFIAWLVQGRG [GLP-1 derivative of Example 71: [Aib8,Lys18,Glu22,Gln34]-GLP-1-(7-37)-peptide] | < 1000 | > 1
